Assay results: patent publication US20040210042A1 (published 2004)
Ends that are not written are not given here.

Biological target: T1, polypeptide translated from the polynucleotide of SEQ ID NO: 62 (human, UniProt Q05513 356-592)
T1 construct: retested as a pGBKT7 fusion in yeast AH109
T1 sequence: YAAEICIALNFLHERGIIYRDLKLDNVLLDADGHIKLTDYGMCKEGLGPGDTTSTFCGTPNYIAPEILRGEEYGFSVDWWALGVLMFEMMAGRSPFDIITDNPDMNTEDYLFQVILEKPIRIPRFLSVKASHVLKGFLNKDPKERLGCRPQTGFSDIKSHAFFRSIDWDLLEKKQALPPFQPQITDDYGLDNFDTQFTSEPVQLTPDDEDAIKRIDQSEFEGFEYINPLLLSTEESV
Test: yeast two-hybrid screen, LexA system, histidine and LacZ reporters, human kidney library
Source text: Then, the Human kidney […] LexA library (manufactured by Clontech Co., Ltd.) was introduced to the above-described strain and 10⁶ colonies were screened. At the first screening, a histidine-deficient medium was used and about 200 colonies were selected based on the expression of a histidine gene, which was a reporter of the interaction. At the second screening, 31 colonies were obtained based on the expression of LacZ, which was another reporter of the interaction. Finally, 31 clones each of which had been confirmed to surely have two kinds of reporter activities were selected. The above procedures were carried out on the basis of protocols of the yeast two-hybrid method from Invitrogen Co., Ltd. and Clontech Co., Ltd.
The library vectors were recovered from the yeast colonies selected as described above, and the nucleotide sequences were analyzed using the DNA sequencer (the same as above). The nucleotide sequences are shown in SEQ ID NOS: 33 to 63 in the Sequence Listing.

B1: cytoplasmic domain of RAGE (receptor for advanced glycation endproduct) (receptor, UniProt Q15109 364-404, looked up)
chain: QRRQRRGEERKAPENQEEEEERAELNQSEEPEAGESSTGGP
modifications: not fully specified
notes: domain: cytoplasmic domain; also called RAGECD; RAGECD fragments
  binding result: binds
